Experimental data published in publication PMC10178127, “Immunomodulatory Effects of the Pea Defensin Psd1 in the Caco-2/Immune Cells Co-Culture upon Candida albicans Infection” (International Journal of Molecular Sciences, 2023).

Tests used:
[1] = tested on: Beas-2B human bronchial epithelial cells; conditions: cited from earlier work
Source text: It was shown previously that pea Psd1 is not toxic for Beas-2B human bronchial epithelial cells. Here we investigated the cytotoxic action of the pea Psd1 on human immune cells by using a human peripheral blood mononuclear cells (PBMCs) fraction.

[2] = tested on: Caco-2 polarized monolayer; assay type: in vitro ADME, human
Protocol: For growing cells, mimicking epithelial barriers in vitro, Caco-2 cells were seeded onto 24-well polycarbonate Millicell cell culture inserts (0.4 μm, 0.6 cm^2 surface area) (Millipore, Burlington, MA, USA), precoated with 0.2% bovine gelatin (Sigma-Aldrich), at a density of 2.5 × 10^5 cells/cm^2. The cells were grown for 21 days in a complete DMEM/F12 (1:1) medium with re-feeding every 2–3 days with a fresh complete medium. The integrity of the Caco-2 cell monolayer was checked by measuring the transepithelial electrical resistance (TEER) using a Millicell-ERS Voltohmmeter (Millipore). Only cell monolayers with TEER > 400 Ωcm^2 (after subtracting TEER in blank inserts without Caco-2 cells) were used in transport across epithelial monolayer and cytokine production experiments.
The recombinant Psd1 was labeled with fluorescein isothiocyanate isomer I (FITC) (Sigma-Aldrich). For this, 0.5 mg of Psd1 was reconstituted in 20 µL of DMSO, then added to 100 µL of the buffer for coupling (0.1 M sodium carbonate, 0.1 M sodium bicarbonate, pH 10.8) and 3.7 mg of FITC in 100 µL of DMSO. The coupling reaction was conducted for 2 h at room temperature in the dark. In order to purify FITC-Psd1, the reaction mixture was loaded onto the PD10 gel-filtration column (GE Healthcare, Chicago, IL, USA) previously equilibrated with transport buffer (Hank’s balanced salt solution, containing 1 mM MgCl2, 1 mM CaCl2, and 10 mM D(+)glucose, pH 7.4).
Transport of FITC-Psd1 across the Caco-2 epithelial barrier in vitro was performed in the transport buffer. Bidirectional “apical-to-basolateral” (A→B) and “basolateral-to-apical” (B→A) transport of FITC-Psd1 in the transport buffer across epithelial barrier was investigated. The “apical-to-basolateral” assay was initiated by adding 0.4 mL of 2 µM FITC-Psd1 to the apical (luminal) side of the monolayer and 0.7 mL of the transport buffer (pH 7.4) to the basolateral side of the monolayer. The “basolateral-to-apical” assay was performed in a similar manner, except that 0.4 mL of the transport buffer (pH 7.4) was added to the apical side and 0.7 mL of 2 µM FITC-Psd1 to the basolateral (serosal) side. All solutions were pre-warmed to 37 °C before taking into the transport experiment. Transport in vitro across Caco-2 barriers was conducted for 90 min in 4 independent inserts for each studied transport variant.
An apparent permeability coefficient (Papp) was calculated for each insert according to the following equation:Papp = (V/(A × Ci)) × ΔC/Δt,(1) where V is the volume of the acceptor chamber, A is the area of the membrane insert, Ci is the initial concentration of Psd1, and ΔC/Δt is the solute flux across the barrier. Uptake ratio:UR = Papp(A→B)/Papp(B→A),(2) and efflux ratio:ER = Papp(B→A)/Papp(A→B),(3) for Psd1 were calculated from averaged apparent permeability coefficients measured in 4 independent inserts. Monolayer integrity was checked by measuring TEER before and after the end of the experiment.

Psd1: pea defensin from Pisum sativum (UNIPROT P81929), recombinant peptide overexpressed in Escherichia coli (KTCEHLADTYRGVCFTNASCDDHCKNKAHLISGTCHNWKCFCTQNC; UniProt P81929 1-46, looked up)
toxicity for Beas-2B cells [1]: not toxic | efflux ratio (ER) ([2]; Caco-2): 2.29 | uptake ratio (UR) ([2]; Caco-2): 0.44 | Apparent permeability A→B coefficients (Papp), range of four inserts ([2]; Caco-2, pH 7.4): 2.63–3.71 × 10^−6 cm/s | Papp A→B ([2]; Caco-2, pH 7.4): 3.04 ± 0.24 × 10^−6 cm/s | Papp B→A ([2]; Caco-2, pH 7.4): 6.96 ± 0.22 × 10^−6 cm/s
